The values that follow come from the DeepSol protein solubility set.

The nature of this series: soluble on expression in E. coli; label from the status in PepcDB or PDB records.
With “MADTKAKLTLNGDTAVELDVLKGTLGQDVIDIRTLGSKGVFTFDPGFTSTASCESKITFIDGDEGILLHRGFPIDQLATDSNYLEVCYILLNGEKPTQEQYDEFKTTVTLHTMIHEQITRLFHAFRRDSHPMAVMCGITGALAAFYHDSLDVNNPRHREIAAFRLLSKMPTMAAMCYKYSIGQPFVYPRNDLSYAGNFLNMMFSTPCEPYEVNPILERAMDRILILHADHEQNASTSTVRTAGSSGANPFACIAAGIASLWGPAHGGANEAALKMLEEISSVKHIPEFFRRAKDKNDSFRLMGFGHRVYKNYDPRATVMRETCHEVLKELGTKDDLLEVAMELENIALNDPYFIEKKLYPNVDFYSGIILKAMGIPSSMFTVIFAMARTVGWIAHWSEMHSDGMKIARPRQLYTGYEKRDFKSDIKR”, the “soluble on expression in E. coli” value is on record as “soluble”.

In the case of “MGSDKIHHHHHHMYKNSMVIGKFYPPHAGHAHLINTAAAQSENVSVLVLGNRFESITVADRTTWLAAEFEDIAGVHVIGMPNDCPEDYDSEEIWKAQSELMRLALKTHGVTEVEAVFSSEEYGAQLAQAFGAEHVLVDQSRTTFPISGTLCRDDLGSAWPFIIGPARQGLATRIILVGAESSGTSTLAKALTEHYRPRFPGITDVPEYGRDYTYEKFDALRAKMPEAVLEDMVWNEQDFGRIATRQNEMENAAADACPLVIADTDSLATTLWERFYIGERSYGSYLAASNLPPRDLYLITDHEGVEFEDDGWREGEHRRAEMTEWFKEALTAEGHSWILVSGDHERRKQTAVEIIELILMQRSKFTSPPWATRTVLEGAAV”, the “soluble on expression in E. coli” value is listed as “not soluble”.

In the case of “MNHNDVLRSLRYMLKVNDAKMAEIIGLSGLEVHPLVLATYLKKEEEEGFVRCPERVMAHFLDGLVIYRRGKDESRPQQPIELPVTNNLILKKLRVAFELKEDDLHAILKSVNFPVSKPELSALFRKAGHDNYRPCGDQLMRNFLKGLTLRVRG”, the “soluble on expression in E. coli” value is given as “not soluble”.

As to “MDKLIIGGIEIKNRLFVGSGKYPSNEIIKDVLEGSGSQVITLALRRVDLDNKEEDILQNIPKDVILLPNTSGATNAEEAIRIARIARAMGCGNWIKIEVISDSKYLLPDNEETIKATKVLADEGFIVLPYMCPDIYAGRRLIEAGAAAVMPLGAPIGSNRGLKTKELIQIMIDELDIPIIVDAGIGKPSQAMEAMEMGAAACLVNTAIASSEDPINMARAFKVAVEGGRLAYEAKMGRESKFGNASSPLTGFLDLEHHHHHH”, the “soluble on expression in E. coli” value is given as “not soluble”.

As to “MSLAPRPRILICEDDPDIARLLNLMLEKGGFDSDMVHSAAQALEQVARRPYAAMTVDLNLPDQDGVSLIRALRRDSRTRDLAIVVVSANAREGELEFNSQPLAVSTWLEKPIDENLLILSLHRAIDNMAEGKEGYLTITTDPNSSSVDKLAAALEHHHHHH”, the “soluble on expression in E. coli” value is listed as “soluble”.

In the case of “MGHHHHHHGGHMSLKIYVVYDSEGEHTKVLAEAIAEGARENDAAEVFIDHVDQADIRKLKDMDAIIWGCPGHFGTISSGLKTWIDRLGYLWAEGELINKVGAVFCTTATTHGGLEMTMHNLITPMFHQGMIVVGLPGNVPENALYGSYYGAGVTCPVDSDELMSEEGIQLGRALGRRVSQVTGNLTAGQEGGS”, the “soluble on expression in E. coli” value is “soluble”.

In the case of “MYRSHFIADVTPEYDGKEVIWAGWVHLLRDLGGKKFIILRDKTGLGQVVVDKNSSAFGISQELTQESVIQVRGIVKADKRAPRGIELHAEEITLLSKAKAPLPLDVSGKVKADIDTRLRERVLDLRRQEMQAVIKIQSLALKAFRETLYKEGFIEIFTPKIIASATEGGAQLFPVIYFGKEAFLAQSPQLYKELMAGVVERVFEVAPAWRAEESDTPFHLAEFISMDVEMAFADYNDVMQLLEKILHNIVKTIKEEGKEELKILNYEPPEVKIPIKRLKYTEAIEILRSKGYNIKFGDDIGTPELRILNEELKEDLYFIVDWPSDARPFYTKSKSENPELSESFDLIYKFLEIVSGSTRNHKREVLEEALKKKGLKPESFEFFLKWFDYGMPPHAGFGMGLARLMVMLTGIQSVKEIVPFPRDKKRLTP”, the “soluble on expression in E. coli” value is reported as “soluble”.
